# Tested on: NotI restriction endonuclease (Nocardia otitidis-caviarum)
# Assay: cleavage_in_vitro
# Conditions: endonuclease contamination test; 200 units, 4 h, 37 C, NEBuffer 3 + BSA
substance,measurement,value
phiX174 RFI DNA,activity (% converted to RF II),< 5
